Measured values taken from publication PMC10193008, “Discovery of an inhibitor of DNA-driven inflammation that preferentially targets the AIM2 inflammasome”.

Biological target: T1, AIM2-GST (rhAIM2) (human, UniProt O14862 1-343)
T1 sequence: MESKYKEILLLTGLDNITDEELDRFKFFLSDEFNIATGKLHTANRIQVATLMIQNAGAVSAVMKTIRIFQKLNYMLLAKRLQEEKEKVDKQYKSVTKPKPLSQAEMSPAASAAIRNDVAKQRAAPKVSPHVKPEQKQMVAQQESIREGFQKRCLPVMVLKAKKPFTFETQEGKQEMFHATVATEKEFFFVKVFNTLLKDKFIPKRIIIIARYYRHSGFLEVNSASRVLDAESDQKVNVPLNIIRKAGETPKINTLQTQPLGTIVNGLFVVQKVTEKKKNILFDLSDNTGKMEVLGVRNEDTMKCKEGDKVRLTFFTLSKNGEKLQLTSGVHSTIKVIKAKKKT
Experiment: EMSA; no inhibitor
Conditions: protein: commercial; tags: GST; label: none (SYBR Safe stain after electrophoresis); blunt

B1: VACV72 dsDNA (dsDNA)
DNA 1: ATCCATCAGAAAGAGGTTTAATATTTTTGTGAGACCATCGAAGAGAGAAAGAGATAAAACTTTTTTACGACT
DNA 2: AGTCGTAAAAAAGTTTTATCTCTTTCTCTCTTCGATGGTCTCACAAAAATATTAAACCTCTTTCTGATGGAT
binding result: binds
